Patent publication US20250333512A1 (PLANTVAX, published 2025)

B1: Nb PGT121 (antibody)
heavy: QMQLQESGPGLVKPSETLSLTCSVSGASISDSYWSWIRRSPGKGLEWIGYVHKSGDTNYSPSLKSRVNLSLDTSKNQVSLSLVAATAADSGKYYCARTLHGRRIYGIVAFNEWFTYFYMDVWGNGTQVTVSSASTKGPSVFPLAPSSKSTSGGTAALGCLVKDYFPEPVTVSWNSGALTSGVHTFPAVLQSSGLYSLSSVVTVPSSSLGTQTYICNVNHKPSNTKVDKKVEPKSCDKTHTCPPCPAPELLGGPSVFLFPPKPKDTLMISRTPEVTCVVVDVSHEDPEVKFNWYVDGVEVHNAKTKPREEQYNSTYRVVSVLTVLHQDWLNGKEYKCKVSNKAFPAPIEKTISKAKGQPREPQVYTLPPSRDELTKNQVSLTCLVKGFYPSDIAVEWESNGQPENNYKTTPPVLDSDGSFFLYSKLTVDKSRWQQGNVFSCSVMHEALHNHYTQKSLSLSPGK
light: SDISVAPGETARISCGEKSLGSRAVQWYQHRAGQAPSLIIYNNQDRPSGIPERFSGSPDSPFGTTATLTITSVEAGDEADYYCHIWDSRVPTKWVFGGGTTLTVLRTVAAPSVFIFPPSDEQLKSGTASVVCLLNNFYPREAKVQWKVDNALQSGNSQESVTEQDSKDSTYSLSSTLTLSKADYEKHKVYACEVTHQGLSSPVTKSFNRGEC
modifications: Plant-type N-glycan at heavy-chain N312 (EU N297); letters unchanged.
B2: Nb PGT121-LS (antibody)
heavy: QMQLQESGPGLVKPSETLSLTCSVSGASISDSYWSWIRRSPGKGLEWIGYVHKSGDTNYSPSLKSRVNLSLDTSKNQVSLSLVAATAADSGKYYCARTLHGRRIYGIVAFNEWFTYFYMDVWGNGTQVTVSSASTKGPSVFPLAPSSKSTSGGTAALGCLVKDYFPEPVTVSWNSGALTSGVHTFPAVLQSSGLYSLSSVVTVPSSSLGTQTYICNVNHKPSNTKVDKKVEPKSCDKTHTCPPCPAPELLGGPSVFLFPPKPKDTLMISRTPEVTCVVVDVSHEDPEVKFNWYVDGVEVHNAKTKPREEQYNSTYRVVSVLTVLHQDWLNGKEYKCKVSNKAFPAPIEKTISKAKGQPREPQVYTLPPSRDELTKNQVSLTCLVKGFYPSDIAVEWESNGQPENNYKTTPPVLDSDGSFFLYSKLTVDKSRWQQGNVFSCSVLHEALHSHYTQKSLSLSPGK
light: B1 light
modifications: Plant-type N-glycan (partly unoccupied) at heavy-chain N312 (EU N297); letters unchanged.

Columns and labels:
Assay in all cases: cell-based or functional assay
[1] = molecular target: chimeric receptor containing a rhesus macaque FcγRIIB ectodomain and the CD3ζ intracellular signaling domain (rhesus macaque, UniProt A0A7G8YX88 43-217)
[2] = molecular target: chimeric receptor containing a rhesus macaque FcγRIIA ectodomain and the CD3ζ intracellular signaling domain (rhesus macaque, UniProt A0A7G8YX83 34-216)
[3] = molecular target: chimeric receptor containing a rhesus macaque FcγRIII ectodomain and the CD3ζ intracellular signaling domain (rhesus macaque, UniProt A3RFZ7 21-206)
[4] = molecular target: chimeric receptor containing a rhesus macaque FcγRI ectodomain and the CD3ζ intracellular signaling domain (rhesus macaque, UniProt A0A7G8YX43 16-293)

Chain of chimeric receptor containing a rhesus macaque FcγRIII ectodomain and the CD3ζ intracellular signaling domain (A3RFZ7 whole entry, change not shown, the tested form may be a part): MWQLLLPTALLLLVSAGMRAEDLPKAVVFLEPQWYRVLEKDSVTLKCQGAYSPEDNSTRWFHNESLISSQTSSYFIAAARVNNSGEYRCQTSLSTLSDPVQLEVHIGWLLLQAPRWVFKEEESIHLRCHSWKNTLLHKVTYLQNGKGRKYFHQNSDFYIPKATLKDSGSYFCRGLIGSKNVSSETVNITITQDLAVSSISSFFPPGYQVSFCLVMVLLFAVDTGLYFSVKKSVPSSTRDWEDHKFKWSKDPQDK

| Binder | EC50 (IL-2 ELISA) [1] [µg/mL] | EC50 (IL-2 ELISA) [2] [µg/mL] | EC50 (IL-2 ELISA) [3] [µg/mL] | EC50 (IL-2 ELISA) [4] [µg/mL] |
| --- | --- | --- | --- | --- |
| B1 | > 50 | > 50 | > 50 | ~0.71 |
| B2 | > 50 | > 50 | > 50 | 1.2 |
